According to publication PMC5678105:

Legend:
Assay in all cases: EMSA
[1] = tested on: TALE_2c_26 (3) (Xanthomonas axonopodis scaffold (designed TALE)); conditions: 5mC at strand 1 nt 24 (site position 13, T = 0); EMSA: 20 mM Tris pH 8, 50 mM NaCl, 5 mM MgCl2, 5% glycerol; 0.1 pmol TALE + 0.5 pmol duplex in 10 uL; RT 30 min then ice 30 min; gel 0.5x TAE 4 C; GFP readout
[2] = tested on: TALE_2c_26 (23) (Xanthomonas axonopodis scaffold (designed TALE)); conditions: 5mC at strand 1 nt 24 (site position 13, T = 0); EMSA: 20 mM Tris pH 8, 50 mM NaCl, 5 mM MgCl2, 5% glycerol; 0.1 pmol TALE + 0.5 pmol duplex in 10 uL; RT 30 min then ice 30 min; gel 0.5x TAE 4 C; GFP readout
[3] = tested on: TALE_9a_26 (5*) (Xanthomonas axonopodis scaffold (designed TALE)); conditions: 5mC at strand 1 nt 16 (site position 5, T = 0); EMSA: 20 mM Tris pH 8, 50 mM NaCl, 5 mM MgCl2, 5% glycerol; 0.1 pmol TALE + 0.5 pmol duplex in 10 uL; RT 30 min then ice 30 min; gel 0.5x TAE 4 C; GFP readout
[4] = tested on: TALE_9a_26 K171A/R173A (Xanthomonas axonopodis scaffold (designed TALE)); conditions: 5mC at strand 1 nt 16 (site position 5, T = 0); EMSA: 20 mM Tris pH 8, 50 mM NaCl, 5 mM MgCl2, 5% glycerol; 0.1 pmol TALE + 0.5 pmol duplex in 10 uL; RT 30 min then ice 30 min; gel 0.5x TAE 4 C; GFP readout
[5] = tested on: TALE_9a_26 R266A (Xanthomonas axonopodis scaffold (designed TALE)); conditions: 5mC at strand 1 nt 16 (site position 5, T = 0); EMSA: 20 mM Tris pH 8, 50 mM NaCl, 5 mM MgCl2, 5% glycerol; 0.1 pmol TALE + 0.5 pmol duplex in 10 uL; RT 30 min then ice 30 min; gel 0.5x TAE 4 C; GFP readout
[6] = tested on: TALE_9a_26 (3) (Xanthomonas axonopodis scaffold (designed TALE)); conditions: 5mC at strand 1 nt 16 (site position 5, T = 0); EMSA: 20 mM Tris pH 8, 50 mM NaCl, 5 mM MgCl2, 5% glycerol; 0.1 pmol TALE + 0.5 pmol duplex in 10 uL; RT 30 min then ice 30 min; gel 0.5x TAE 4 C; GFP readout
[7] = tested on: TALE_9a_26 K262A (Xanthomonas axonopodis scaffold (designed TALE)); conditions: 5mC at strand 1 nt 16 (site position 5, T = 0); EMSA: 20 mM Tris pH 8, 50 mM NaCl, 5 mM MgCl2, 5% glycerol; 0.1 pmol TALE + 0.5 pmol duplex in 10 uL; RT 30 min then ice 30 min; gel 0.5x TAE 4 C; GFP readout
[8] = tested on: TALE_9a_26 R236A (Xanthomonas axonopodis scaffold (designed TALE)); conditions: 5mC at strand 1 nt 16 (site position 5, T = 0); EMSA: 20 mM Tris pH 8, 50 mM NaCl, 5 mM MgCl2, 5% glycerol; 0.1 pmol TALE + 0.5 pmol duplex in 10 uL; RT 30 min then ice 30 min; gel 0.5x TAE 4 C; GFP readout

CATCCATGAGTGAGAAACCCTGGCGGGGTGTGACATCCTCCCCCGG (double strand) [2c_26 5mC]
binding signal (fold C/5mC selectivity vs WT TALE) [1]: 2.5 | binding signal (fold C/5mC selectivity vs WT TALE) [2]: 1.1

GGCCAGCCAGTCAGCCGAAGGCTCCATGCTGCTCCCCGCCGCCGGC (double strand) [9a_26 5mC]
binding signal (fold C/5mC selectivity vs WT TALE) [3]: 7.2 | binding signal (fold C/5mC selectivity vs WT TALE) [4]: 2.9 | binding signal (fold C/5mC selectivity vs WT TALE) [5]: 3 | binding signal (fold C/5mC selectivity vs WT TALE) [6]: 5.7 | binding signal (fold C/5mC selectivity vs WT TALE) [7]: 3 | binding signal (fold C/5mC selectivity vs WT TALE) [8]: 1.4
